Measurements reported in paper PMC8902471.
Positions count from the first letter of the chain named.

Legend:
Experiment in all cases: EMSA
Ets-1 ΔN301 MT1 = biological target: T1, Ets-1 ΔN301 MT1 (Mus musculus (murine), UniProt P27577 301-440, L337A;W338A)
T1 sequence: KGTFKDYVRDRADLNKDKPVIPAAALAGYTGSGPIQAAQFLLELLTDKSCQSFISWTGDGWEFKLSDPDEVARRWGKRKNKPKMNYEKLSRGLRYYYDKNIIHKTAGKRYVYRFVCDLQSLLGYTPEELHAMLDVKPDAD

Ets-1 ΔN301 MT2 = biological target: T2, Ets-1 ΔN301 MT2 (Mus musculus (murine), UniProt P27577 301-440, L393A;Y396A)
T2 sequence: T1 sequence with A37L, A38W, L93A, Y96A

Ets-1 ΔN301 MT4 = biological target: T3, Ets-1 ΔN301 MT4 (Mus musculus (murine), UniProt P27577 301-440, W338A)
T3 sequence: T1 sequence with A37L

Ets-1 ΔN301 MT3 = biological target: T4, Ets-1 ΔN301 MT3 (Mus musculus (murine), UniProt P27577 301-440, L337A)
T4 sequence: T1 sequence with A38W

Measured: binding result

B1: 27-bp high-affinity ETS site DNA (dsDNA)
DNA 1: TCGACGGCCAAGCCGGAAGTGAGTGCC
DNA 2: TCGAGGCACTCACTTCCGGCTTGGCCG
no binding: Ets-1 ΔN301 MT1 | Ets-1 ΔN301 MT2 | Ets-1 ΔN301 MT4 | Ets-1 ΔN301 MT3
